Assay results reported in patent US20070167369A1, “Novel use of isolated polypeptide comprising four FAS-1 domains, EM1 domain and RGD motif” (KYUNGPOOK NATIONAL UNIVERSITY INDUSTRY-ACADEMIC COOPERATION …, priority 2004, published 2007).

B1: fas-1 domain: recombinant protein containing the fourth fas-1 domain of human βig-h3 (SEQ ID NO: 64) (protein, listed as Homo sapiens)
chain: MGTVMDVLKGDNRFSMLVAAIQSAGLTETLNREGVYTVFAPTNEAFRALPPRERSRLLGDAKELANILKYHIGDEILVSGGIGALVRLKSLQGDKLEVSLKNNVVSVNKEPVAEPDIMATNGVVHVITNVL
B2: truncated βig-h3: recombinant human βig-h3 with EMI domain, all four fas-1 domains and RGD motif; residues 68-653 of SEQ ID NO: 1 (SEQ ID NO: 66) (protein, listed as Homo sapiens)
chain: WYQRKICGKSTVISYECCPGYEKVPGEKGCPAALPLSNLYETLGVVGSTTTQLYTDRTEKLRPEMEGPGSFTIFAPSNEAWASLPAEVLDSLVSNVNIELLNALRYHMVGRRVLTDELKHGMTLTSMYQNSNIQIHHYPNGIVTVNCARLLKADHHATNGVVHLIDKVISTITNNIQQIIEIEDTFETLRAAVAASGLNTMLEGNGQYTLLAPTNEAFEKIPSETLNRILGDPEALRDLLNNHILKSAMCAEAIVAGLSVETLEGTTLEVGCSGDMLTINGKAIISNKDILATNGVIHYIDELLIPDSAKTLFELAAESDVSTAIDLFRQAGLGNHLSGSERLTLLAPLNSVFKDGTPPIDAHTRNLLRNHIIKDQLASKYLYHGQTLETLGGKKLRVFVYRNSLCIENSCIAAHDKRGRYGTLFTMDRVLTPPMGTVMDVLKGDNRFSMLVAAIQSAGLTETLNREGVYTVFAPTNEAFRALPPRERSRLLGDAKELANILKYHIGDEILVSGGIGALVRLKSLQGDKLEVSLKNNVVSVNKEPVAEPDIMATNGVVHVITNVLQPPANRPQERGDELADSALEI

Columns and labels:
HUVEC = test: Adhesion of endothelial cells to vitronectin (Example 13-1); type: cell-based, human
Method: Flat-bottomed 96-well ELISA plates (Costar, Corning, Inc., NY) were incubated overnight at 4° C. with 5 μg/ml of vitronectin (Promega, Madison, Wis.) and blocked for 1 hour at room temperature with PBS containing 2% bovine serum albumin (BSA).
Primary human umbilical vein endothelial cells (HUVEC) were cultured at 37° C. in 5% CO2 in M199 medium supplemented with 20% fetal bovine serum. For all the experiments, HUVECs were used at passage 4 or less. HUVEC cells were suspended in medium at a density of 3×10^5 cells/ml, and 0.1 ml of the cell suspension was pre-incubated with or without the indicated concentration of the truncated βig-h3, the fas-1 domain and Regenin for 40 min at 37° C., then added to each well of the coated. After incubation for 5 to 10 minutes at 37° C., unattached cells were removed by rinsing with PBS. Attached cells were then incubated for 1 hour at 37° C. in 50 mM citrated buffer (pH 5.0) containing 3.75 mM p-nitrophenyl-N-acetyl-Dglycosamide and 0.25% Triton X-100. Enzyme activity was blocked by adding 50 mM glycine buffer (pH 10.4) containing 5 mM EDTA, and the absorbance was measured at 405 nm in a Bio-Rad model 550 microplate reader.

HUVECs [1] = test: Migration of endothelial cells to vitronectin, transwell (Example 13-2); type: cell-based, human; details: for IC50: read-out: half-inhibition of migration toward vitronectin observed at; for inhibition of migration to vitronectin: various concentrations, 4 to 6 hours
Method: Cell migration assays were done in transwell plates (8 μm pore size, Costar, Cambridge, Mass.). The undersurface of the membrane was coated with 5 μg/ml of vitronectin at 4° C. and blocked for 1 hour at room temperature with PBS containing 2% BSA. HUVECs were suspended in medium at a density of 3×10^5 cells/ml, and 0.1 ml of the cell suspension was pre-incubated with or without the indicated concentration of the truncated βig-h3, the fas-1 domain and Regenin for 40 min at 37° C., then added to the upper compartment of the filter. Cells were allowed to migrate for 4 to 6 hours at 37° C. The filters were fixed with 8% glutaraldehyde and stained with crystal violet, and non-migrating cells on the upper surface of the filter were removed by wiping with a cotton swab. The extent of cell migration was determined by light microscopy, and within each well, counting was done in nine randomly selected microscopic high power fields (x200).

HUVECs [2] = test: Endothelial tube formation in Matrigel (Example 14); type: cell-based, human; details: for 70%-inhibition of tube formation observed at: concentration giving 70% inhibition; for inhibition of tube formation: various concentrations, 6 to 10 hours
Method: Matrigel (Chemicon, International Inc, Temecula, Calif.) was added (100 μl) into each well of a 96-well plate and polymerized for 30 minutes at 37° C. HUVECs were suspended in medium at a density of 3×10^5 cells/ml, and 0.1 ml of the cell suspension was pre-incubated with or without the indicated concentration of the truncated βig-h3, the fas-1 domain and Regenin for 40 min at 37° C., then seeded on the surface of the Matrigel. Cells were incubated for 6 to 10 hours at 37° C. The cells were then photographed, and branch points from 4 high-power fields (x200) were counted and averaged.

[3] = test system: Murine melanoma cells (B16F10) tumor; test: B16F10 tumor growth in BALB/c nude mice (Example 15-1); type: in vivo; details: for tumor growth inhibition compared with control: i.p. everyday from 7 days after inoculation
Method: Murine melanoma cells (B16F10) were cultured in RPMI 1640 containing 25 mM/L HEPES with 10% fetal bovine serum. Male BALB/c nude mice (5-6 weeks old) were implanted with 1×10^6 B16F10 cells into the flank subcutis and monitored tumor growth and neovascularization after systemic treatment with exogenous fas-1 domain (5 μM) or truncated βig-h3 (50 nM or 10 nM). Experimental groups were i.p. injected everyday from 7 days after tumor cell inoculation with the indicated concentration of fas-1 domain or truncated βig-h3 in a total volume of 0.1 ml PBS. The control group was given an equal volume of PBS each day. Each experimental group consisted of six to eight mice. Tumor sizes were measured using Vernier calipers every 2 to 3 days, and the measured values were substituted in the following equation (2) to calculate the volumes of the tumor. Volume of tumor=width^2×length×0.52. [Equation 2]
Wherein, ‘width’ is the shortest diameter.

[4] = test system: B16F10 tumor microvessels; test: Intratumoral microvessel density, CD31 immunostaining (Example 15-2); type: in vivo, BALB/c nude mice; details: B16F10 tumors of treated mice
Method: To determine whether the reduced size of the indicated protein-treated tumors coincides with reduced neovascularization, the present inventors used six representative tumors to quantify the density of microvessels after immunostaining with CD31 antibody.
Concretly, intratumoral microvessel density (MVD) was analyzed on paraffin sections of B16F10 tumor using a rat anti-mouse CD31 monoclonal antibody (PharMingen, San Diego, Calif.). Immunoperoxidase staining was done using the Vectastain avidin-biotin complex Elite reagent kit (Vector Laboratories, Burlingame, Calif.). Sections were counterstained with Hematoxyline. MVD was assessed initially by scanning the tumor at low power, followed by identification of four areas at the tumor periphery containing the maximum number of discrete microvessels, and counting individual microvessels at a high power field (x200). Each group consisted of six or eight tumor tissue.

[5] = various concentrations, vitronectin 5 μg/ml

Row | Molecule | inhibition of adhesion to vitronectin (HUVEC; 500 nM) | inhibition of adhesion to vitronectin (HUVEC; [5]) | IC50 (HUVECs [1]) [nM] | inhibition of migration to vitronectin (HUVECs [1]) | 70%-inhibition of tube formation observed at (HUVECs [2]) [µM] | inhibition of tube formation (HUVECs [2]) | tumor growth inhibition compared with control ([3]; 5 μM (10 mg/kg)) | inhibition of adhesion to vitronectin (HUVEC; 500, 50 and 10 nM) | inhibition of migration of endothelial cells to vitronectin (HUVECs [1]; 500 nM) | tumor growth inhibition ([3]; 10 nM (68 μg/kg), i.p. everyday) | tumor growth inhibition compared with control ([3]; 50 nM (340 μg/kg)) | CD31-positive microvessels in tumor (intratumoral microvessel density) [4]
1 | B1 | ineffective | dose-dependent inhibition | 5000 | dose-dependent inhibition | 5 | dose-dependent inhibition | equivalent levels of tumor growth inhibition | – | – | – | – | –
2 | B2 | – | dose-dependent inhibition | 50 | dose-dependent inhibition | 0.05 | dose-dependent inhibition | – | clear dose-response effect | strongly suppressed | inhibitory effect of tumor growth | equivalent levels of tumor growth inhibition | decrease in CD31-positive microvessels
